Consider one molecule from US20210032329A1 (VACCINEX, published 2021).

The target in test [1] is T1, marmoset SEMA4D-His (marmoset, UniProt A0A8I3W811 22-734).
T1 construct: also called CD100-His; not shown: His tag
T1 sequence: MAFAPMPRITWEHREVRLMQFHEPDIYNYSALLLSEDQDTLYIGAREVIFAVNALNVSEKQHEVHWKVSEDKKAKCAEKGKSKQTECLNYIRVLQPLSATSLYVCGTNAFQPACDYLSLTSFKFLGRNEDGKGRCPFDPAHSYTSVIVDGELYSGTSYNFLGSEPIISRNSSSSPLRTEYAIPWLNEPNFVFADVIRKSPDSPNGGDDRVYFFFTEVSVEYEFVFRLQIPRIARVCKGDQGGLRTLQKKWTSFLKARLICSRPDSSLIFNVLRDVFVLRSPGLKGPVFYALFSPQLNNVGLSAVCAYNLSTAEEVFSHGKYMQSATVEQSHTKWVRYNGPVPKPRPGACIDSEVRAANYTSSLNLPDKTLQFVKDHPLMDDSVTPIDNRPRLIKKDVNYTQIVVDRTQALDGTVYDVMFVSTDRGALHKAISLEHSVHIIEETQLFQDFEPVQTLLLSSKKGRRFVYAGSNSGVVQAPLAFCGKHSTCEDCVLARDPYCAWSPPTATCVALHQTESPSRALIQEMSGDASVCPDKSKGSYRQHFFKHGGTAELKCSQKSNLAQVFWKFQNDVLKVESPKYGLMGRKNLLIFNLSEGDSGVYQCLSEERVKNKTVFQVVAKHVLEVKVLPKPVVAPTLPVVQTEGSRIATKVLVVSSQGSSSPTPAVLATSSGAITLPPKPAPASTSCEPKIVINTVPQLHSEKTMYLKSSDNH
Kind of test: BIACORE; antibody captured with goat anti-human IgG Fc, marmoset SEMA4D-His as analyte. The procedure: The binding characteristics of MAb D2517 were determined by BIACORE assay, as follows.

Test [2] addresses T2, mouse SEMA4D-His (mouse, UniProt O09126 24-733, limits assumed).
T2 construct: not shown: His tag, detected with anti-6xHis-APC
T2 sequence (looked up): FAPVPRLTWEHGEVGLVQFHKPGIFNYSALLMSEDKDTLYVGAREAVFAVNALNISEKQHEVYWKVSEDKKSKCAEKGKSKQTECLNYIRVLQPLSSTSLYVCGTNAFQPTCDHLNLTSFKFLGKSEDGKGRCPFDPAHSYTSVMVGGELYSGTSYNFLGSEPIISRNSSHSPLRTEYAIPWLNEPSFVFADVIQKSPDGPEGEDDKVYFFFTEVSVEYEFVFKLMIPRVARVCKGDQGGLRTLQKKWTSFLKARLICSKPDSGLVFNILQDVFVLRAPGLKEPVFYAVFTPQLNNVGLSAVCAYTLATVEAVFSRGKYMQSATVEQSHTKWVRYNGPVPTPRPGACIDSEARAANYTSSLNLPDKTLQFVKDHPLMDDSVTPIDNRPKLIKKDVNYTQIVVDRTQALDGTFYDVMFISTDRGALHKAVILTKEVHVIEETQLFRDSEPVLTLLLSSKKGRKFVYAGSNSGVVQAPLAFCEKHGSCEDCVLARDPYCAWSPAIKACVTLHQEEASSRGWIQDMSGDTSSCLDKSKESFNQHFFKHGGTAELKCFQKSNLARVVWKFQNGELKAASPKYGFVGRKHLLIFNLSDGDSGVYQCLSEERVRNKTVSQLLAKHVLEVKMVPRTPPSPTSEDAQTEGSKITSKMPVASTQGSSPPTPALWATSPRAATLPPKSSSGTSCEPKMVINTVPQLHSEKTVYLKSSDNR
Kind of test: receptor blocking; antibody dilution series pre-incubated with SEMA4D-His, binding to 293PLXNB1 cells (Plexin B1) read by flow cytometry. Here is the method: (§1) After washing, the cells were stained with anti-6xHis-APC (30 min, 4° C.), washed and analyzed by flow cytometry on FACS Canto II.

Test [3] concerns the target T3, cynomolgus monkey SEMA4D-His (cynomolgus monkey).
T3 construct: also called Cyno SEMA4D
The test is described as above. Here is the method:
as §1

The target in test [4] is T4, rat SEMA4D-His (rat, UniProt A0A8I6G5Q1 23-734).
T4 construct: not shown: His tag, detected with anti-6xHis-APC
Described as above. Here is the method: as §1

For test [5], the target named is T5, human SEMA4D-His (human, UniProt Q92854 22-734, limits assumed).
T5 construct: also called CD100-His; not shown: His tag, detected with anti-6xHis-APC
T5 sequence (looked up): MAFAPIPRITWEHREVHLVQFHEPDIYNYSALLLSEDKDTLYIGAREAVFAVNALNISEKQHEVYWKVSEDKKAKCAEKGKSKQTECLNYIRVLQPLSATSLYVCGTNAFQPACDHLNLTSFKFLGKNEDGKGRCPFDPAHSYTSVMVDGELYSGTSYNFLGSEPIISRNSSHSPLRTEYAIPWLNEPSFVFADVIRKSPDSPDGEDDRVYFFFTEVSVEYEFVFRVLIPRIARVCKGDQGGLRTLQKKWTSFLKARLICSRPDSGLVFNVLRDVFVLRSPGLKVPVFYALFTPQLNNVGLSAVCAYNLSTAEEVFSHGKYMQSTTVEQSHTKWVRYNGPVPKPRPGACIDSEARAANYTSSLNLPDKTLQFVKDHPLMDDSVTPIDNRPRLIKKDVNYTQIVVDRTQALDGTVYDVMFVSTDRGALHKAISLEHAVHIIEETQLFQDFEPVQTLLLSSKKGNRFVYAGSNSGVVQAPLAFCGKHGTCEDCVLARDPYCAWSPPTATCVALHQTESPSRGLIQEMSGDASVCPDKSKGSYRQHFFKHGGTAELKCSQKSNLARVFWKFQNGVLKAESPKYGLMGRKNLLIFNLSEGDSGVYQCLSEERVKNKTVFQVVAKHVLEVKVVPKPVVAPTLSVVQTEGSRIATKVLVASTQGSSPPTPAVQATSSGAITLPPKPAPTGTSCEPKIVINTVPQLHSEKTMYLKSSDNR
The test is described as above. The procedure: as §1

B1: MAb D2517 (antibody, V domains shown)
VH: EVQLVESGGGLVQPGGSLRLSCAASGFIFSDYWMVWVRQAPGKGLEYVAHMNQDGGARYYAESVRGRFTISRDNAKNSLYLQMNSLRAEDTAVYYCARDPWGYDSWGQGTLVT
VL: not shown
Regarding B1, in test [1], the Ka is 2.47e+08 M⁻¹, binding was characterised by a dissociation constant (Kd) of 4 nM, the dissociation rate constant (koff) came to 0.0032 s⁻¹ and the on-rate constant (kon) stood at 789000 M⁻¹ s⁻¹. In test [2], the EC50 is 1.2 nM. In test [3], this molecule displayed an EC50 of 1.2 nM. In test [4], this molecule returned an EC50 of 1.5 nM. In test [5], this molecule returned an EC50 of 1 nM.
